Test results: article PMC6396981

Target: MTs coated with His-mCherry-SEPT9 (10 nM) (bovine (methods) or porcine (Key Resources Table) | human) (UniProt P02550)
Assay: single-molecule TIRF motility assay

fold landing rate against SEPT9-free MTs: 2 fold
Substance: KIF5C(1–560)-L12_(KIF1A)-mCit (from UniProt P56536 1-560) (domain or fragment)
